{"source": "paper PMC2920065", "key": {"[1]": {"target": "GST fusion of the wild type DEP domain of RGS7 (R7-DEP) (bovine) (UniProt O46470)", "assay": "pull-down"}, "[2]": {"target": "GST-DEP F107A/F110A double mutant (bovine) (UniProt O46470)", "assay": "pull-down"}}}
{"substance": "Gβ5 I282A/I283A double mutant in complex with the RGS7^249-469 construct (from UniProt O46470 249-469)", "values": [{"measurement": "fold reduction of binding against wild-type Gβ5", "setting": "[1]", "value": 5, "unit": "fold"}]}
{"substance": "Gβ5 D259A mutant in complex with the RGS7^249-469 construct (from UniProt O46470 249-469)", "values": [{"measurement": "increase of the fraction bound against wild-type Gβ5", "setting": "[1]", "value": 10, "unit": "%"}]}
{"substance": "Gβ5 F284A mutant in complex with the RGS7^249-469 construct (from UniProt O46470 249-469)", "values": [{"measurement": "fold reduction of binding against wild-type Gβ5", "setting": "[1]", "value": 5, "unit": "fold"}]}
{"substance": "complex of wild-type Gβ5 with the RGS7^249-469 construct (from UniProt O46470 249-469)", "values": [{"measurement": "percent bound", "setting": "[1]", "value": "> 50", "unit": "%"}, {"measurement": "percent bound", "setting": "[2]", "value": 12, "unit": "%"}]}
